Reference: publication PMC5397363 (Molecular microbiology, 2017)
Changes are numbered by the printed parent chain. Square brackets hold non-standard residues; d marks the D form. Ends that are not written are not given here. 2Abz = Nc1ccccc1C(=O)O

Legend:
Test in all cases: fluorescence polarisation
[1] = molecular target: T1, Staphylococcus aureus Prp H22A (S. aureus, UniProt Q2FXS9 1-106, H22A)
T1 sequence: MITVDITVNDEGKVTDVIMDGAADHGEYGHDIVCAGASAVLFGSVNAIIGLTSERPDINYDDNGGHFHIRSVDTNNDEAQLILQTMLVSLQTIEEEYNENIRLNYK

[2] = molecular target: Staphylococcus aureus Prp C34S (S. aureus, UniProt Q2FXS9 1-106, C34S)
[3] = molecular target: T2, Staphylococcus aureus Prp S38A (S. aureus, UniProt Q2FXS9 1-106, S38A)
T2 sequence: T1 sequence with A22H, S38A

Measured: binding result

B1: 2-Abz-KLNLQFFASKK-Am, fluorescent L27 cleavage-motif peptide without quencher (peptide)
peptide: [2Abz]KLNLQFFASKK-NH2
modifications: N-terminus assumed
SMILES: CC(C)C[C@H](NC(=O)[C@H](CCCCN)NC(=O)c1ccccc1N)C(=O)N[C@@H](CC(N)=O)C(=O)N[C@@H](CC(C)C)C(=O)N[C@@H](CCC(N)=O)C(=O)N[C@@H](Cc1ccccc1)C(=O)N[C@@H](Cc1ccccc1)C(=O)N[C@@H](C)C(=O)N[C@@H](CO)C(=O)N[C@@H](CCCCN)C(=O)N[C@@H](CCCCN)C(N)=O
binds: all assays above
